In patent publication US20090060916A1 (published 2009):
Where “and” joins values, the source holds several entries; their conditions need not be identical. Equal values may be shown once.

What was measured:
[1] = biological target: T1, human IL-13 (human, UniProt P35225 35-146, biotinylated on the Biacore chip); test: IL-13 receptor I RBA: FMAT beads, IL-13R alpha1/Fc
T1 construct: also called hIL-13; recombinant human IL-13
Protocol: (§1) The plate was incubated for seven hours before being read in the 8200 cellular detection system (Applied Biosystems).

[2] = biological target: T1, human IL-13; test: DOM10 RBA (IL-13 sandwich ELISA per paragraph 473)
Protocol: (§2) A MAXISORP™ plate (high protein binding ELISA plate, Nunc, Denmark) was coated overnight with 2.5 μg/ml coating antibody (Module Set, Bender MedSystems, Vienna, Austria), then washed once with 0.05% (v/v) Tween 20 in PBS before blocking with 0.5% (w/v) BSA 0.05% (v/v) Tween 20 in PBS. […] The plate was then incubated with TMB substrate (KPL, Gaithersburg, USA), and the reaction was stopped by the addition of HCl and the absorbance read at 450 nm.
These in-line fusions were constructed and expressed as described above. […] After this incubation, the level of cell proliferation was determined.

[3] = biological target: T2, human IL-4 (human, UniProt P05112 25-153, biotinylated in the receptor binding assay and on the Biacore chip); test: IL-4 RBA: ELISA, IL-4R/Fc coated, biotinylated IL-4
T2 construct: also called interleukin-4; biotinylated IL-4
T2 sequence (looked up): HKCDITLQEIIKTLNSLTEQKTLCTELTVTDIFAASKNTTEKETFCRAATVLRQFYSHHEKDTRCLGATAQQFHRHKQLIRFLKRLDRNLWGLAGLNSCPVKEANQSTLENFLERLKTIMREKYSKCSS
Text: The wells were washed three times with 0.1% (v/v) Tween 20 in PBS, followed by three washes with PBS, before blocking with 2% (w/v) BSA in PBS. […] The reaction was stopped by the addition of HCl and the absorbance read at 450 nm.

[4] = biological target: T1, human IL-13; test: IL-13 receptor binding assay (receptor chain not stated)
[5] = biological target: T1, human IL-13; test: IL-13 receptor I RBA: FMAT beads, IL-13R alpha1/Fc; remark: listed apart in the source
Protocol: as §1
This molecule was PEGylated via the C terminus using PEG-Maleimide with a branched 40K PEG2-MAL moiety.

[6] = biological target: T2, human IL-4; test: cell-based or functional assay
[7] = biological target: cynomolgous IL-13 (cynomolgous, UniProt Q0PW92 19-132, The Biacore assay used biotinylated cIL-13 according to our card. The biotin cannot be carried in the letters.); test: cell-based or functional assay
cynomolgous IL-13, sequence (Q0PW92 entry or part of it limits assumed, form in doubt): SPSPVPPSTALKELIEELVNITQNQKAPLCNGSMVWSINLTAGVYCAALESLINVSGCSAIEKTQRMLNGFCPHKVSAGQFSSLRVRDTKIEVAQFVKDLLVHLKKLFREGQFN

[8] = biological target: T1, human IL-13; test: cell-based or functional assay
[9] = biological target: T1, human IL-13; test: IL-13 sandwich ELISA, competition with coating antibody
Protocol: as §2

[10] = biological target: T1, human IL-13; test: cell-based or functional assay; remark: listed apart in the source
[11] = biological target: T1, human IL-13; test: cell-based or functional assay; remark: listed apart in the source
[12] = biological target: T1, human IL-13; test: assay not named ('Potency IC50')
[13] = biological target: T3, rhesus IL-4 (rhesus, UniProt P51492 25-153); test: inferred from TF-1 proliferation with rhesus IL-4
T3 sequence (looked up): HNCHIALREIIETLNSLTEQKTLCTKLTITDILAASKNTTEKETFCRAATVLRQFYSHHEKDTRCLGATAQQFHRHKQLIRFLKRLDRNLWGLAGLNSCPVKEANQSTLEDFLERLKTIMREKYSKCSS
Protocol: The mixture was incubated for 72 hours at 37° C. 5% CO₂. […] 96® reagent (colorometric reagent for determining viability, Promega, Madison, USA) was then added and the number of cells per well was quantified by measuring the absorbance at 490 nm.
A dose-response of the dAb will determine the ND50 in this set up.

T1 sequence (P35225 35-146 limits assumed): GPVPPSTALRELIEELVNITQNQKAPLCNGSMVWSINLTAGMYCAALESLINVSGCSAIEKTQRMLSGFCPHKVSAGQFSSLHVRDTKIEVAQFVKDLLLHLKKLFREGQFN

B1: DOM10-176 (other)
VL: DIQMTQSPSSLSASVGDRVTITCRASQWIGPYLNWYQQKPGKAPKLLIYMGSYLQSGVPSRFSGSGSGTDFTLTISSLQPEDFATYYCQQDLYPPYTFGQGTKVEIKR
notes: Vk dAb
Question: For B1, which IC50 [1] is on record?
Answer: 100 nM

B2: DOM10-275-1-DOM9-155-78 (bispecific antibody)
chain: EVQLLESGGGLVQPGGSLRLSCAASGFTFDREEMDWVRQAPGKGLEWVSTISPSGRKTYYADSVKGRFTISRDNSKNTLYLQMNSLRAEDTAVYYCAKAYTGFDYWGQGTLVTVSSASTKGPSDIQMTQSPSSLSASVGDRVTITCRASRHIGDWLHWYQQKPGKAPKLLIAWASTLDSGVPSRFSGSGSGTDFTLTISSLQPEDFATYYCLQEGWGPPTFGQGTKVEIKR
Question: For B2, which IC50 [2] is on record?
Answer: 39.2 nM

B3: DOM9-112-210-DOM10-275-1 (bispecific antibody)
chain: EVQLLESGGGLVQPGGSLRLSCAASGFTFRNFGMGWVRQAPGKGLEWVSWIISSGTETYYADSVKGRFTISRDNSKNTLYLQMNSLRAEDTAVYYCAKSLGRFDYWGQGTLVTVSSASTKGPSEVQLLESGGGLVQPGGSLRLSCAASGFTFDREEMDWVRQAPGKGLEWVSTISPSGRKTYYADSVKGRFTISRDNSKNTLYLQMNSLRAEDTAVYYCAKAYTGFDYWGQGTLVTVSS
Question: With B3 as the binder, how does the IC50 [2] read?
Answer: 44.9 nM

B4: DOM10-273 (other)
VH: EVQLLESGGGLVQPGGSLRLSCAASGFTFELEEMDWVRQAPGKGLEWVSSISGSGGSTYYADSVKGRFTISRDNSKNTLYLQMNSLRAEDTAVYYCAKAYTGFDYWGQGTLVTVSS
notes: VH dAb
Question: With B4 as the binder, how does the IC50 [1] read?
Answer: 600 nM

B5: DOM10-275 (other)
VH: EVQLLESGGGLVQPGGSLRLSCAASGFTFDREEMDWVRQAPGKGLEWVSTISPSGRKTYYADSVKGRFTISRDNSKNTLYLQMNSLRAEDTAVYYCAKHGTGFDYWGQGTLVTVSS
notes: VH dAb
Question: For B5, which IC50 [1] is on record?
Answer: 1000 nM

B6: DOM10-416 (other)
VH: EVQLLESGGGLVQPGGSLRLSCAASGFTFKGSEMDWVRQAPGKGLEWVSTISADGRETYYADSVKGRFTISRDNSKNTLYLQMNSLRAEDTAVYYCAKSYTSFDYWGQGTLVTVSS
notes: VH dAb
Question: B6 was tested. Which IC50 [1] did it give?
Answer: 6000 nM

B7: DOM10-276 (other)
VH: EVQLLESGGGLVQPGGSLRLSCAASGFTFRDYEMDWVRQAPGKGLEWVSSIGPSGSETYYADSVKGRFTISRDNSKNTLYLQMNSLRAEDTAVYYCAKAYTSFDYWGQGTLVTVSS
notes: VH dAb
Question: B7 was tested. Which IC50 [1] did it give?
Answer: 3000 nM

B8: PEGylated DOM9-112 (AST) DOM10-53-343 (bispecific antibody)
chain: EVQLLESGGGLVQPGGSLRLSCAASGFTFRNYGMAWVRQAPGKGLEWVSWIDASGTETYYADSVKGRFTISRDNSKNTLYLQMNSLRAEDTAVYYCAKSLGRFDYWGQGTLVTVSSASTEVQLLESGGGLVQPGGSLRLSCAASGFIFAWYDMGWARQAPGKGLEWVSSIDWHGEVTYYADSVKGRFTISRDNSKNTLYLQMNSLRAEDTAVYYCATAEDEPGYDYWGQGTLVTVSSC
modifications: 40K PEG2-MAL on the C-terminal cysteine
notes: in-line fusion of two VH dAbs made in Pichia pastoris; also called dual specific ligand
Question: For B8, which IC50 [3] is on record?
Answer: 13 nM

Question: And the IC50 [4]?
Answer: 0.31 nM

B9: DOM10-53-343 40K PEG2 MAL (other)
VH: EVQLLESGGGLVQPGGSLRLSCAASGFIFAWYDMGWARQAPGKGLEWVSSIDWHGEVTYYADSVKGRFTISRDNSKNTLYLQMNSLRAEDTAVYYCATAEDEPGYDYWGQGTLVTVSSC
modifications: branched 40K PEG2-MAL on the C-terminal cysteine
Question: How did the IC50 [5] turn out when B9 was run?
Answer: 0.033 nM

B10: DOM9-112-22 (other)
VH: EVQLLESWGGLVQPGGSLRLSCAASGFTFRNYGMAWVRQAPGKGLEWISWIDASGTETYYADPVKGRFTISRDNSKNTLYLQMNSLRAEDTAVYYCAKSLGRFDYWGQGTLVTVSS
Question: B10 was tested. Which “average inhibition of HDM induced PBMC proliferation, 100 nM dAb, responding donors” value [6] did it give?
Answer: 23%

B11: DOM10-275-99 (other)
VH: EVHLLESGGGLVQPGGSLRLSCAASGFTFDSAEMDWVRQAPGKGLEWVSTISPSRRGTYYADSVKGRFTISRDNSKNTLYLQMNSLRAEDTAIYYCAKAYTGRSYWGPGTLVTVSS
Question: How did the “EC50, HEK293 STAT6 SEAP reporter assay, cIL-13” value (“EC50 … cIL-13” for short) [7] turn out when B11 was run?
Answer: 2 nM

Question: And the “EC50, HEK293 STAT6 SEAP reporter assay, hIL-13” value (“EC50 … hIL-13” below) [8]?
Answer: 2.8 nM

B12: DOM10-275-100 (other)
VH: GVQLLESGGGLVQPGGSLRLSCAASGFTFDSAEMDWVRQAPGKGLEWVSTISPSRRGTYYADSVKGRFTISRDNSKNTLYLQMNSLRAEDTAVYYCAKAYTGRSYWGPGTLVTVSS
Question: For B12, which “EC50 … cIL-13” value [7] is on record?
Answer: 2.5 nM

Question: What about the “EC50 … hIL-13” value [8] of the same binder?
Answer: 2.8 nM

B13: DOM10-275-101 (other)
VH: GVQLLESGGGLVQPGGSLRLSCVASGFTFDVAEMDWVRQAPGKGLEWVSTISPSRRGTYYADSVKGRFTISRDNSKNTLYLQMNSLRAEDTAVYYCAKAYTGRSLWGPGTLVTVSS
Question: For B13, which “EC50 … cIL-13” value [7] is on record?
Answer: 1.8 nM

Question: And the “EC50 … hIL-13” value [8]?
Answer: 3.6 nM and 2 nM

B14: DOM10-53-234 (other)
VH: GVQLLESGGGLVQPGGSLRLSCAASGFIFAWYDMGWARQAPGKGLEWVSSIDWHGNVTYYADSVKGRFTISRDNSKNTLYLQMNSLRAEDTAVYYCATAEDEPGYDYWGQGTLVTVSS
notes: VH dAb
Question: Which results are given for B14?
Answer: IC50 [9]: 0.087 nM and 0.081 nM and 0.04 nM; ND50, IL-13 induced TF-1 cell proliferation [10]: 43 nM

B15: DOM10-53-338 30K PEG ALD (other)
VH: EVQLLESGGGLVQPGGSLRLSCAASGFIFAWYDMGWARQAPGKGLEWVSSIDWRGNVTYYADSVKGRFTISRDNSKNTLYLQMNSLRAEDTAVYYCATAEDEPGYDYWGQGTLVTVSS
modifications: 30K PEG-ALD on the N-terminus (alpha-amino group)
notes: also called 30K PEGylated DOM10-53-338 dAb
Question: With B15 as the binder, how does the “IC50, IL-13 induced TF-1 proliferation” value [11] read?
Answer: 0.181 nM

Question: And the IC50 [5]?
Answer: 0.169 nM

B16: DOM10-53-338 (other)
VH: EVQLLESGGGLVQPGGSLRLSCAASGFIFAWYDMGWARQAPGKGLEWVSSIDWRGNVTYYADSVKGRFTISRDNSKNTLYLQMNSLRAEDTAVYYCATAEDEPGYDYWGQGTLVTVSS
notes: VH dAb
Question: How did the “IC50, IL-13 induced TF-1 proliferation” value [11] turn out when B16 was run?
Answer: 0.423 nM

Question: What about the IC50 [5] of the same binder?
Answer: 0.387 nM

B17: DOM10-53-338 40K PEG2 NHS (other)
VH: EVQLLESGGGLVQPGGSLRLSCAASGFIFAWYDMGWARQAPGKGLEWVSSIDWRGNVTYYADSVKGRFTISRDNSKNTLYLQMNSLRAEDTAVYYCATAEDEPGYDYWGQGTLVTVSS
modifications: 40K PEG2-NHS on surface lysine residues (positions not stated)
notes: also called 40K PEGylated DOM10-53-338 dAb
Question: Which “IC50, IL-13 induced TF-1 proliferation” value [11] does the source give for B17 here?
Answer: 0.231 nM

Question: What about the IC50 [5] of the same binder?
Answer: 0.226 nM

B18: DOM10-53-343 (other)
VH: EVQLLESGGGLVQPGGSLRLSCAASGFIFAWYDMGWARQAPGKGLEWVSSIDWHGEVTYYADSVKGRFTISRDNSKNTLYLQMNSLRAEDTAVYYCATAEDEPGYDYWGQGTLVTVSS
notes: VH dAb
Question: B18 was tested. Which IC50 [5] did it give?
Answer: 0.136 nM

Question: What about the IC50 [4] of the same binder?
Answer: 0.23 nM

B19: DOM10-53 (other)
VH: GVQLLESGGGLVQPGGSLRLSCAASGFTFAWYDMGWARQAPGKGLEWVSSIDDSGTQTYYADSVKGRFTISRDNSKNTLYLQMNSLRAEDTAVYYCATAERDDTFDYWGQGTLVTVSS
notes: VH dAb
Question: Which results are given for B19?
Answer: IC50 [12]: 100 nM; IC50 [1]: 150 nM

B20: DOM9-155-11 (other)
VL: DIQMTQSPSSLSASVGDRVTITCRASRNIGDWLHWYQQKPGKAPKLLIAWASTLDSGVPSRFSGSGSGTDFTLTISSLQPEDFATYYCLQEGWGPPTFGQGTKVEIKR
Question: B20 was tested. Which “average inhibition of HDM induced PBMC proliferation, 100 nM dAb, responding donors” value [6] did it give?
Answer: 34%

B21: DOM9-155-5 (other)
VL: DIQMTQSPSSLSASVGDRVTITCRASLDIGDWLHWYQQKPGKAPKLLIAWASTLDSGVPSRFSGSGSGTDFTLTISSLQPEDFATYYCLQEGWGPPTFGQGTKVEIKR
notes: Vk dAb
Question: Does B21 bind [13]?
Answer: binds
